Source: patent US20170184612A1, “USE OF LEUKOCYTES AND NOVEL BIOMARKERS IN THE DIAGNOSIS, CONFIRMATION, AND TREATMENT OF A NEUROLOGICAL DISORDER” (The Trustees of Columbia University in the City of New York, priority 2014, published 2017)

Biological target: SIINFEKL-MHC-I (SIINFEKL peptide bound to MHC-I H-2Kb) (chicken; mouse)
Test: cell-based or functional assay

Which neuronal death (TH+ neurons killed by CTLs) does the source give for “T cell receptor of OT-1 CD8+ T cells (TCR)” here?
The neuronal death (TH+ neurons killed by CTLs) was 55%.
